One test deals with α-SMA. Put plainly: Endothelial-to-mesenchymal transition inhibition test, real-time PCR (Example 15). Type of test: cell-based, human. To be noted: HUVEC; antibody pre-reacted with Glycer-AGEs-BSA. How it is done:
(§1) 10 μL of Glycer-AGEs-BSA (10 mg/mL) prepared in Example 1, PBS, and 90 μL of SJ-5 (10 mg/mL) or a control antibody (10 mg/mL) were added to a 1.5 mL tube (Watson). Alternatively, 90 μL of a PBS solution of control BSA (10 mg/mL) was added. These solutions were left standing at room temperature for 10 minutes. Then, a supernatant was recovered by centrifugation at 14000 rpm for 15 minutes using a centrifuge (Thermo Fisher Scientific Inc.).
(§2) HUVEC was cultured in a 10 cm dish using 10 mL of a medium for HUVEC.
(§3) The cultured HUVEC was washed with 10 mL of PBS. Then, 1 mL of trypsin-EDTA was added thereto and left standing at room temperature for 3 minutes. HUVEC thus left standing was confirmed to be detached from the dish, and trypsin-EDTA was neutralized by the addition of 10 mL of a medium for HUVEC. After the neutralization, the whole amount was transferred to a 50 mL tube and centrifuged at 1500 rpm for 3 minutes using a centrifuge.
(§4) After the centrifugation, the supernatant was discarded, and precipitated cells were resuspended by the addition of 1 mL of a medium for HUVEC. A 10 μL aliquot from the resuspension was mixed with 10 μL of Trypan Blue, and 10 μL thereof was added to a counting chamber. Then, the number of live cells was counted in Auto Cell Counter EVE. The cell suspension was diluted into 2.5×10^5 cells/mL with a medium for HUVEC and inoculated at 400 μL/well to the Matrigel prepared in (1). After the inoculation, each reaction solution prepared in (2) was added at 100 μL/well, followed by culture for 8 hours in a CO2 incubator.
(§5) Each well was washed three times with 1 mL of PBS, and Cell Recovery Solution (Corning Inc.) was added at 500 μL/well.
(§6) The cells and the Matrigel matrix were scraped off using Blue Chip (Watson), recovered into a 1.5 mL tube, and transferred to the 1.5 mL tube after rinsing of each well again with 500 μL of Cell Recovery Solution. The 1.5 mL tube was mixed by inversion five times and then left standing on ice for 1 hour to confirm that the Matrigel matrix was completely degraded. After the Matrigel matrix degradation, a supernatant was discarded by centrifugation at 800 rpm at 4° C. Precipitated cells were gently suspended in 1 mL of ice-cooled PBS and centrifuged at 800 rpm at 4° C. to discard a supernatant. Precipitated cells were gently suspended again in 1 mL of ice-cooled PBS and centrifuged at 800 rpm at 4° C.
(§7) 125 μL of CellAmp Washing Buffer attached to the kit was added to the cells precipitated by centrifugation, and mixed. […]
(§8) After the addition, real-time PCR was performed with QuantStudio™ 12K Flex real-time PCR system (Thermo Fisher Scientific Inc.) to quantify gene expression levels. […]

A further test deals with CD31. Described as above. Type of test: cell-based, human. Conditions: HUVEC; antibody pre-reacted with Glycer-AGEs-BSA. How it is done: as §1, §2, §3, §4, §5, §6, §7, §8
Another test deals with A-peak-BSA (Bos taurus, UniProt P02769). Kind of test: Suppression test of DAB oxidation of A-peak-BSA (Example 32). Conditions: PB-1 1.8 mg/mL; A-peak-BSA 2 mg/mL; white LED 3000 lux overnight. Format: biochemical. The procedure:
Diaminobenzidine (DAB, Dojindo Laboratories) was prepared into 5 mg/mL in a PBS solution. A-peak-BSA (2 mg/mL, PBS solution) was prepared in the same way as in Example 24. 10 μL of the DAB solution was added to a 0.6 mL microtube (Watson), and 100 μL of PBS, the PB-1 antibody (1.8 mg/mL), or a mouse IgG isotype control (Ctrl-mIgG, Thermo Fisher Scientific Inc.) was further added thereto. After stirring with a vortex mixer, 10 μL of the A-peak-BSA solution was added thereto. These solutions were stirred with a vortex mixer and then irradiated overnight with white LED (3000 lux). The solutions thus irradiated with light were stirred with a vortex mixer, then spun down, and recovered at 100 μL/well into Violamo 96-well plate (AS ONE Corp.).
Absorbance at a wavelength of 460 nm was measured with a microplate reader (Cytation 5, BioTek Instrument Inc.) to detect oxidized DAB. The ordinate of the graph depicts a relative value to oxidized DAB detected in the antibody-untreated group (PBS addition group).

Chain of A-peak-BSA (P02769 25-607): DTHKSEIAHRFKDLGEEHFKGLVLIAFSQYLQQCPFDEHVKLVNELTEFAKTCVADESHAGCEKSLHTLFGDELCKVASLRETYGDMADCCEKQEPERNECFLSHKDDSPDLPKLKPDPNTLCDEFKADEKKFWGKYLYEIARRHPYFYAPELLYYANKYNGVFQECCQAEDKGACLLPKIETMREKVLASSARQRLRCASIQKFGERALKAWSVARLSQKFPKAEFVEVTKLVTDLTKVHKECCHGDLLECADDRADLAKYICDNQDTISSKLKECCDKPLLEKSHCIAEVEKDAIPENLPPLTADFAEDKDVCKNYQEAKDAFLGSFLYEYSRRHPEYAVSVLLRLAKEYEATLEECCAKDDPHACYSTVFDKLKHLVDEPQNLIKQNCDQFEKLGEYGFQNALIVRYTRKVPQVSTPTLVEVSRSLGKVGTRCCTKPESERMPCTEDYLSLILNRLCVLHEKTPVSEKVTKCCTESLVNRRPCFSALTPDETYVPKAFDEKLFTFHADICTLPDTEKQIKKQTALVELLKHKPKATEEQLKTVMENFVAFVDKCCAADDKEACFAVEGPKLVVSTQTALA

B1: SJ-5: mouse monoclonal antibody raised against GAL13-MSA; heavy-chain variable region SEQ ID NO 4, light-chain variable region SEQ ID NO 8 (antibody, listed as Mus musculus, V domains shown)
VH: EVMLVESGGRLVKPGGSLKLSCAASGFTFSSYGMSWVRQTPEKRLEWVATISGGGSYTYYPDSVKGRFTISRDNVKNNLYLQMSSLRSEDTALYYCARRGAYGDYGWFAYWGQGTLVTVSA
VL: DIVLTQSPATLSVTPGDSVSLSCRASQSINNNLHWYQQKSHESPRLLIKCASQSISGIPSRFSGSGSGTDFTLSINSVETEDFGMYFCQQSNSWPLTFGAGTKLELK
Consider B1, for which, in the test with α-SMA, the “suppression of α-SMA increase caused by Glycer-AGEs-BSA” value is recorded as “suppressible”. The “suppression of CD31 decrease caused by Glycer-AGEs-BSA” value in the test on CD31 is “suppressible”.

B2: PB-1: mouse monoclonal antibody raised against A-peak-BSA; heavy-chain variable region SEQ ID NO 18, light-chain variable region SEQ ID NO 22 (antibody, listed as Mus musculus, V domains shown)
VH: EVRLQQSGPELVKPGTSVKISCKASGYSFTGYYMHWVKQSPVKSLEWIGRIIPYNGATSYNQNFKDKASLTVDKSSRTAYMDLHSLTSEDSAVYYCARSRYYGRAPYYFDYWGQGTTLTVSS
VL: DVVVTQTPLSLPVSLGDQASISCRSSQSIVHSNGNTYLEWYLQKPGQSPKLLIYKVSNRFSGVPDRISGSGSGTDFTLKISRVEAGDLGVYSCFQGSHVPFTFGSGTKLEIK
As to B2, the “oxidized DAB (absorbance at 460 nm) compared with PBS or Ctrl-mIgG treatment group” value in the test with A-peak-BSA is “largely decreased”.

The values above are taken from patent US12391751B2, “Antibody against advanced glycation end products and use thereof” (Bloom Technology Corporation, priority 2018, dated 2025).
